Data on four molecules can be found in patent US20230110188A1 (ARGENX IIP, published 2023).

The target of test [1] is T1, Human MuSK (R&D Systems, cat. 10189-MK, histidine tag) (human, UniProt O15146 24-495).
T1 construct: Bought protein; also called human monomeric MuSK-6xhis; not shown: histidine tag (6xhis)
T1 sequence: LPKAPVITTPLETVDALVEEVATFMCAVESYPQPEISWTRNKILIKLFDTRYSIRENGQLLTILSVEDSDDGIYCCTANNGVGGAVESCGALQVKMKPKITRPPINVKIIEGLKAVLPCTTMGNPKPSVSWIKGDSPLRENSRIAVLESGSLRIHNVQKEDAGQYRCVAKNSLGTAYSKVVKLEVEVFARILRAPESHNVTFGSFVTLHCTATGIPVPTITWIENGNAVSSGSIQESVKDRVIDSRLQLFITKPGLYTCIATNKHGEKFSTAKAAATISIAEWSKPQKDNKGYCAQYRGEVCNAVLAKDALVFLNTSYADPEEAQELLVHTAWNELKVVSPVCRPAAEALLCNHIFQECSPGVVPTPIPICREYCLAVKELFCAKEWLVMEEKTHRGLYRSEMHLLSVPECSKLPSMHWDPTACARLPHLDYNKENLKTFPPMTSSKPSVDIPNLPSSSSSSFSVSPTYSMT
The experiment in a line: SPR (Biacore), antibody captured on anti-hFc chip; 2.5 nM; dissociation pH 5.5. From the text:
(§1) In order to study pH dependent binding of our antibodies to MuSK, the Biacore was used with the same setup as described in the paragraph entitled “Binding affinity for mouse, human and rhesus monkey recombinant MuSK in Biacore”. 6. […] For the other antibodies there is no real difference observed between pH 7.4 and 5.5.
In general terms: In SPR one partner is held on a chip, and binding of the other changes the refractive index at the surface.

Test [2] deals with T1, Human MuSK (R&D Systems, cat. 10189-MK, …). The experiment in a line: SPR (Biacore), antibody captured on anti-hFc chip; 0.3125 nM; dissociation pH 7.4.
Excerpt: as §1

Test [3] shares this target. The experiment in a line: SPR (Biacore), antibody captured on anti-hFc chip; 0.3125 nM; dissociation pH 5.5.
Excerpt: as §1

In another test the target is T2, hMuSK delta 1-2-3 (Fz) (human, UniProt O15146).
T2 construct: truncated extracellular domain, captured by anti-FLAG
T2 sequence (truncated extracellular domain, looked up): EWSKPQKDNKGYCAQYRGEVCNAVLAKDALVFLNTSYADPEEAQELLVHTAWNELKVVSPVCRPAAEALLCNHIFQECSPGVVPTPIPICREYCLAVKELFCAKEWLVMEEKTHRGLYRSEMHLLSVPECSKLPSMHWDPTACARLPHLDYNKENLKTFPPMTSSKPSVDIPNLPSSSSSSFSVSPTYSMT
In words: ELISA, hMuSK delta 1-2-3 (Fz) captured on anti-FLAG coat, antibody titrated, anti-human Fc HRP detection, OD450. Here is the method:
For binding to MuSK domains—An ELISA plate was coated with 0.5 μg/ml of anti-FLAG (M2 clone, Sigma Cat. F3165) and incubated overnight at 4° C. Next, the plate was washed with PBS and blocked with 1×PBS 1% casein for two hours at RT. After washing the plate, human monomeric MuSK FLAG streptavidin (batch 27-6-2019) and truncated MuSK variants (batch 3-9-2019) at 1 μg/ml in PBS where incubated for one hour at RT. After washing the plate, antibodies were diluted in blocking buffer and added to the plate. After a one hour incubation at RT, the plate was washed. Next, detecting antibody was added and incubated for one hour at RT (anti-human Fc HRP (1/5000) (clone 5A9, cat. No. Ab7499, ABCAM)) in blocking buffer. Lastly, the plate was washed with PBS and TMB was added and the reaction was stopped with 0.5 M H2SO4. OD 450 nm was determined by the Tecan Sunrise ELISA plate reader.
For the MuSK domain binding ELISA, binding of anti-MuSK antibodies to FLAG captured human monomeric MuSK and truncated variants was tested (FIG. 6). 3D9b, 3F6c, 3D10a, 4D3 and 3B5 bound only to full length MuSK, no binding was observed against the truncated MuSK variants. Therefore, we conclude that our antibodies bind to the Ig1 domain.
(ELISA stands for enzyme-linked immunosorbent assay.)

In test [4] the target is T3, Mouse MuSK as it stands on mouse muscle (neuromuscular junctions, C2C12 myotubes) (mouse, UniProt Q61006 22-868).
T3 sequence (looked up): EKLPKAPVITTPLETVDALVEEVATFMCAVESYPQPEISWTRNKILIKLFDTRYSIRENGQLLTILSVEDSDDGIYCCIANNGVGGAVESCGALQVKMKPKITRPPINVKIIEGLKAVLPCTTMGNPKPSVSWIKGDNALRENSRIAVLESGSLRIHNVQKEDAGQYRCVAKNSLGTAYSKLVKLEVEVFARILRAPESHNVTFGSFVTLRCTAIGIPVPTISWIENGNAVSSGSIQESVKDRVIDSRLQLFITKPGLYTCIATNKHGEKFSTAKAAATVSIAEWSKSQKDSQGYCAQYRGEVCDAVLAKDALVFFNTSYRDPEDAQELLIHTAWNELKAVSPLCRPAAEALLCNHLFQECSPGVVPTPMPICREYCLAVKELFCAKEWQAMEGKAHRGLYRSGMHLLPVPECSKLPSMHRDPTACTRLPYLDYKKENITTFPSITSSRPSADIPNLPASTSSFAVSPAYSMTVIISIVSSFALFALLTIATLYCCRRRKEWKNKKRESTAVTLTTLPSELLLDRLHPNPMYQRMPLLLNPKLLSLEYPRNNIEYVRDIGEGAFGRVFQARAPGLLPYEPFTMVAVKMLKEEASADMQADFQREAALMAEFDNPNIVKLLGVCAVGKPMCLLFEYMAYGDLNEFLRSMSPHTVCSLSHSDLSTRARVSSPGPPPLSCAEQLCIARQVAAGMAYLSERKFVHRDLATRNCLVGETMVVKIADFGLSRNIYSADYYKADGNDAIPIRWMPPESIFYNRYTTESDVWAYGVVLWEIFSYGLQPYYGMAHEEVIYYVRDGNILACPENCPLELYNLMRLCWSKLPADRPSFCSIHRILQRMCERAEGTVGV
In words: cell-based or functional assay.

B1: 3D10a (antibody, human IgG1, kappa, L234A L235A, V domains shown)
VH: EVQLVESGGGLVKPGGSLRLSCAASGFTFSASTMAWVRQAPGKGLEWVSSVSGDSHHIYYADSLKGRFTISRDNAKNSLYLQMNSLRAEDTAVYYCARERLLRLGVGFDSWGQGTLVTVSS
VL: DIQMTQSPSSLSASVGDRVTITCRASQRISGFVNWYQQKPGKAPKLLIYAASTLQSGVPSRFSGSGSGTDFTLTISSLQPEDFATYYCQQSYSPLYTFGQGTKLEIKR
The koff is the rate constant with which the complex falls apart. A high value points to fast dissociation. Consider B1, for which the off-rate constant (koff) in test [1] came out at 9e-05 s⁻¹. Further, the koff in test [2] amounted to 0.00018 s⁻¹. Also, the koff in test [3] is 6e-05 s⁻¹. The binding result with hMuSK delta 1-2-3 (Fz) is recorded as “no binding (tested: log(conc) 4.2 (about 16000 ng/ml))”. In test [4], the “AChR clusters larger or equal to 15 µm (large clusters) compared to agrin; antibody 0.11 µg/ml” value is 62 % of agrin, the “AChR clusters larger or equal to 15 µm (large clusters) compared to agrin; antibody 1.1 µg/ml” value was 64 % of agrin, the “AChR clusters larger or equal to 15 µm (large clusters) compared to agrin; antibody 11 µg/ml” value was 61 % of agrin and the “AChR clusters larger or equal to 15 µm (large clusters) compared to agrin; antibody 110 µg/ml” value is 58 % of agrin.

B2: 3D9b (antibody, human IgG1, kappa, L234A L235A, V domains shown)
VH: EVQLVESGGGLVKPGGSLRLSCAASGFTFSTYTMHWVRQAPGKGLEWVSSISSRSAYKYYADSVKGRFTISRDNAKNSLYLQMNSLRAEDTAVYYCARDFFQLGPPRFDSWGQGTLVTVSS
VL: DIQMTQSPSSLSASVGDRVTITCRASQRISSFLNWYQQKPGKAPKLLIYGASNLQSGVPSRFSGSGSGTDFTLTISSLQPEDFATYYCQQSYSPSYTFGQGTKLEIKR
In test [1], B2 registered a koff of 4e-05 s⁻¹. The molecule also showed a koff in test [2] of 0.00018 s⁻¹. Also, in test [3], the koff was 3e-05 s⁻¹. Also, in the test with hMuSK delta 1-2-3 (Fz), the binding result was “no binding (tested: log(conc) 4.2 (about 16000 ng/ml))”. Further, in test [4], the “AChR clusters larger or equal to 15 µm (large clusters) compared to agrin; antibody 0.11 µg/ml” value was 49 % of agrin, the “AChR clusters larger or equal to 15 µm (large clusters) compared to agrin; antibody 1.1 µg/ml” value is 84 % of agrin, the “AChR clusters larger or equal to 15 µm (large clusters) compared to agrin; antibody 11 µg/ml” value is 79 % of agrin and the “AChR clusters larger or equal to 15 µm (large clusters) compared to agrin; antibody 110 µg/ml” value is 66 % of agrin.

B3: 3F6c (antibody, human IgG1, kappa, L234A L235A, V domains shown)
VH: EVQLVESGGGLVKPGGSLRLSCAASGFTFSSYTMDWVRQAPGKGLEWVSSIGSNGDYIYYADSVRGRFTISRDNAKNSLYLQMNSLRAEDTAVYYCARGQLAVAGTHFDYWGQGTLVTVSS
VL: DIQMTQSPSSLSASVGDRVTITCRASQKVNKYVNWYQQKPGKAPKLLIYAASTLQSGVPSRFSGSGSGTDFTLTISSLQPEDFATYYCQQSYSPLSTFGQGTKLEIKR
B3 yielded a koff in test [1] of 0.0002 s⁻¹. Besides, the koff in test [2] stood at 0.00015 s⁻¹. In test [3], this molecule showed a koff of 0.00023 s⁻¹. In addition, the binding result with hMuSK delta 1-2-3 (Fz) was “no binding (tested: log(conc) 4.2 (about 16000 ng/ml))”. Also, in test [4], the “AChR clusters larger or equal to 15 µm (large clusters) compared to agrin; antibody 0.11 µg/ml” value was 60 % of agrin, the “AChR clusters larger or equal to 15 µm (large clusters) compared to agrin; antibody 1.1 µg/ml” value is 46 % of agrin, the “AChR clusters larger or equal to 15 µm (large clusters) compared to agrin; antibody 11 µg/ml” value was 51 % of agrin and the “AChR clusters larger or equal to 15 µm (large clusters) compared to agrin; antibody 110 µg/ml” value was 50 % of agrin.

B4: 4D3 (antibody, human IgG1, kappa, L234A L235A, V domains shown)
VH: EVQLVESGGGLVKPGGSLRLSCAASGFTFSSYTMTWVRQAPGKGLEWVSSISSGGHYIYYTDSLKGRFTISRDNAKNSLYLQMNSLRAEDTAVYYCARERLLRLGVGFDFWGQGTLVTVSS
VL: DIQMTQSPSSLSASVGDRVTITCRASQSISGYLNWYQQKPGKAPKLLIYAASTLQSGVPSRFSGSGSGTDFTLTISSLQPEDFATYYCQQSYSALYTFGQGTKLEIKR
With B4, the koff in test [1] worked out at 0.00014 s⁻¹. Also, the dissociation rate constant (koff) in test [2] came out at 0.00013 s⁻¹. In test [3], this molecule returned a koff of 0.00018 s⁻¹. The binding result in the test with hMuSK delta 1-2-3 (Fz) is recorded as “no binding (tested: log(conc) 4.2 (about 16000 ng/ml))”. In test [4], the “AChR clusters larger or equal to 15 µm (large clusters) compared to agrin; antibody 0.11 µg/ml” value was 44 % of agrin, the “AChR clusters larger or equal to 15 µm (large clusters) compared to agrin; antibody 1.1 µg/ml” value was 58 % of agrin, the “AChR clusters larger or equal to 15 µm (large clusters) compared to agrin; antibody 11 µg/ml” value was 61 % of agrin and the “AChR clusters larger or equal to 15 µm (large clusters) compared to agrin; antibody 110 µg/ml” value is 58 % of agrin.
